Source: patent US20240226230A1

Molecular target: phenylalanine and glycine rich nucleoporins (FG-Nups)
Assay: cell-based or functional assay

FLAG-KPNB1 H1-8^WT (from UniProt Q14974 1-361)
cells in which the accumulation of TDP-43 and Nup62 in cytoplasmic GR aggregates is abolished: 60 % of cells
